# Measurements reported in FireProtDB (doi:10.1016/j.jmb.2008.02.039).
# B1: Ribonuclease HII, O74035 (parent)
# chain: MKIAGIDEAGRGPVIGPMVIAAVVVDENSLPKLEELKVRDSKKLTPKRREKLFNEILGVLDDYVILELPPDVIGSREGTLNEFEVENFAKALNSLKVKPDVIYADAADVDEERFARELGERLNFEAEVVAKHKADDIFPVVSAASILAKVTRDRAVEKLKEEYGEIGSGYPSDPRTRAFLENYYREHGEFPPIVRKGWKTLKKIAEKVESEKKAEERQATLDRYFRKV
# Variants of: B1
# Conditions: Thermococcus kodakarensis (strain ATCC BAA-918 / JCM 12380 / KOD1), pH 9, CD, reversible: Yes, structure 1IO2, whole UniProt chain shown; for ddG of mutation (higher = less stable) / denaturant m value / denaturant midpoint (higher = more stable) / unfolding free energy: 50 °C, GdnHCl, Tris-HCl 20 mM; for Tm / change of melting temperature, mutant - wild type (higher = more stable): Thermal, Gly-NaOH 20 mM
Variant,ddG of mutation (higher = less stable) [kcal/mol],denaturant m value [kcal/mol/M],denaturant midpoint (higher = more stable) [M],unfolding free energy [kcal/mol],Tm [°C],"change of melting temperature, mutant - wild type (higher = more stable) [°C]"
I15A,2.13,4.3,1.47,6.31,,
L147A,2.61,6.19,1.38,8.53,,
L33A,,,,,72.6,-11.9
I102A,4.04,5.9,1.12,6.62,73.8,-10.7
I56A,3.97,5.35,1.13,6.05,75.8,-8.7
I6A,,,,,79.3,-5.2
L118A,5.26,5.9,0.9,5.31,70.8,-13.7
L92A,2.87,6,1.33,8.01,78.9,-5.6
I20A,4.42,5.74,1.05,6.05,76.1,-8.4
